For assay [1], the target named is T1, rHuman ErbB2/Fc Chimera, CF (R&D Systems Cat#1129-ER) (human, UniProt P04626 23-652).
T1 construct: Bought Fc chimera; also called HER2/neu; Fc part of the bought chimera not given
The experiment in a line: MSD ECL titration, Fab 0.1 nM, blank 201.

In assay [2] the target is T2, rHuman Notch-1/Fc Chimera, CF (R&D Systems Cat#3647-TK) (human, UniProt P46531 19-526).
T2 construct: Bought Fc chimera; Fc part of the bought chimera not given
The experiment in a line: MSD ECL titration, Fab 0.1 nM, blank 201.

The target in assay [3] is T3, rHuman EGF R/Fc Chimera, CF (R&D Systems Cat#344-ER) (human, UniProt P00533 25-645).
T3 construct: Bought Fc chimera; Fc part of the bought chimera not given
The experiment in a line: MSD ECL titration, Fab 0.1 nM, blank 201.

Assay [4] concerns the target T4, Recombinant Human DLL4 (R&D Systems Cat#1506-D4/CF) (human, UniProt Q9NR61 27-524).
T4 construct: Bought recombinant protein; also called rHuman DLL4; delta-like protein 4
The experiment in a line: MSD ECL titration, Fab 0.1 nM, blank 201.

In assay [5] the target is T5, rHuman HGF R/c-MET/Fc Chimera, CF (R&D Systems Cat#358-MT/CF) (human, UniProt P08581 25-932).
T5 construct: Bought Fc chimera; also called HGF R/Fc; Fc part of the bought chimera not given
The experiment in a line: MSD ECL titration, Fab 0.1 nM, blank 201.

For assay [6], the target named is T6, rHuman IGF-1 sR (insulin-like growth factor-1 soluble receptor), CF (R&D Systems Cat#391-GR) (human, UniProt P08069 31-932).
T6 construct: Bought soluble receptor; also called IGF-R1
The experiment in a line: MSD ECL titration, Fab 0.1 nM, blank 201.

In assay [7] the target is T7, rHuman P-Cadherin/Fc Chimera, CF (R&D Systems Cat#861-PC) (human, UniProt P22223 108-654).
T7 construct: Bought Fc chimera; Fc part of the bought chimera not given
The experiment in a line: MSD ECL titration, Fab 0.1 nM, blank 201.

For assay [8], the target named is T8, rHuman CD44/Fc Chimera, CF (R&D Systems Cat#3660-CD) (human, UniProt P16070 21-220).
T8 construct: Bought Fc chimera; Fc part of the bought chimera not given
The experiment in a line: MSD ECL titration, Fab 0.1 nM, blank 201.

Assay [9] deals with T9, rHuman Erythropoietin R/Fc Chimera, CF (R&D Systems Cat#963-ER) (human, UniProt P19235 25-250).
T9 construct: Bought Fc chimera; also called EPO R/Fc; EPOR; Fc part of the bought chimera not given
T9 sequence: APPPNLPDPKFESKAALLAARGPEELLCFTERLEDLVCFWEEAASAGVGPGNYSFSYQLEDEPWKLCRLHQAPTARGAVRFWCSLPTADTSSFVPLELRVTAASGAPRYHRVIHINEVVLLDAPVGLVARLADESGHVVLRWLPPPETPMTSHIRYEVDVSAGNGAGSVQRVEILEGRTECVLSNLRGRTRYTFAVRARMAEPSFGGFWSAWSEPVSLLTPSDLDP
The experiment in a line: MSD ECL titration, Fab 0.1 nM, blank 201.

In assay [10] the target is T1, rHuman ErbB2/Fc Chimera, CF (R&D …). The experiment in a line: MSD ECL titration, Fab 9.3 nM, blank 287.
The target in assay [11] is T2, rHuman Notch-1/Fc Chimera, CF (R&D …). The experiment in a line: MSD ECL titration, Fab 9.3 nM, blank 287.
The target in assay [12] is T3, rHuman EGF R/Fc Chimera, CF (R&D …). The experiment in a line: MSD ECL titration, Fab 9.3 nM, blank 287.
The target in assay [13] is T4, Recombinant Human DLL4 (R&D Systems …). The experiment in a line: MSD ECL titration, Fab 9.3 nM, blank 287.
The target in assay [14] is T5, rHuman HGF R/c-MET/Fc Chimera, CF (R&D …). The experiment in a line: MSD ECL titration, Fab 9.3 nM, blank 287.
The target of assay [15] is T6, rHuman IGF-1 sR (insulin-like growth …). The experiment in a line: MSD ECL titration, Fab 9.3 nM, blank 287.
In assay [16] the target is T7, rHuman P-Cadherin/Fc Chimera, CF (R&D …). The experiment in a line: MSD ECL titration, Fab 9.3 nM, blank 287.
Assay [17] deals with T8, rHuman CD44/Fc Chimera, CF (R&D Systems …). The experiment in a line: MSD ECL titration, Fab 9.3 nM, blank 287.
Assay [18] has as its target T9, rHuman Erythropoietin R/Fc Chimera, CF …. The experiment in a line: MSD ECL titration, Fab 9.3 nM, blank 287.
Assay [19] has as its target T10, rHuman Erythropoietin R/Fc Chimera, CF (R&D Systems Cat#963-ER) (human, UniProt P19235 25-250).
T10 construct: Purchased Fc chimera; also called EPO R/Fc; Epo R; not shown: Fc portion of the purchased chimera
T10 sequence: T9 sequence
The experiment in a line: MSD ECL multi-spot plate, antigen immobilized; Fab 0.32 nM; blank spot 513.

The target of assay [20] is T11, rHuman EGF R/Fc Chimera, CF (R&D Systems Cat#344-ER) (human, UniProt P00533 25-645).
T11 construct: Purchased Fc chimera; not shown: Fc portion of the purchased chimera
The assay is described as above.

Assay [21] addresses T12, Recombinant Human DLL4 (R&D Systems Cat#1506-D4/CF) (human, UniProt Q9NR61 27-524).
T12 construct: Purchased recombinant protein; also called delta-like protein 4
The assay is described as above.
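Note: blank spot per well as comparator with Hit at signal to blank ratio of 4 or more.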

B1: Fab VH1-46_IGHD6-6*01_IGHJ1*01 & L6_IGKJ1*01 (Fab, V domains shown)
VH: QVQLVQSGAEVKKPGASVKVSCKASGYTFTSYYMHWVRQAPGQGLEWMGIINPSGGSTSYAQKFQGRVTMTRDTSTSTVYMELSSLRSEDTAVYYCAREEYSSSSAEYFQHWGQGTLVTVSS
VL: not shown
notes: Expressed in E. coli as Fab: heavy chain with CH1 plus Flag and His tags from Plasmid A, kappa light chain constant region from Plasmid C; also called Fab No. 1
As to B1, the ECL signal was determined as 306 in [1]; 378 in assay [2]; 311 in [3]; 317 in assay [4]; 286 in [5]; 241 in [6]. In addition, the ECL signal was 235 in [7]; 323 in assay [8]; 373 in assay [9]; 354 in assay [10]; 492 in [11]; 424 in assay [12]. Besides, the ECL signal in assay [13] worked out at 13200; in assay [14], 324; in [15] it was 315; in assay [16] it was 452; in assay [17] it was 396; in [18], 306.

B2: Fab VH5-51_IGHD5-18*01>3_IGHJ4*01_G100R & V3-4_IGLJ1*01 (Fab, V domains shown)
VH: EVQLVQSGAEVKKPGESLKISCKGSGYSFTSYWIGWVRQMPGKGLEWMGIIYPGDSDTRYSPSFQGQVTISADKSISTAYLQWSSLKASDTAMYYCARRRYSYGYDYFDYWGQGTLVTVSS
VL: QTVVTQEPSFSVSPGGTVTLTCGLSSGSVSTSYYPSWYQQTPGQAPRTLIYSTNTRSSGVPDRFSGSILGNKAALTITGAQADDESDYYCVLYMGSGISYVFGTGTKVTVL
notes: It was expressed as a Fab: CH1 with tags from Plasmid A and lambda CL from Plasmid E; also called Fab No. 23
As for B2, the ECL signal in assay [19] came to 851 ECL signal; in assay [20], 1220 ECL signal; in [21] it was 1210 ECL signal.

These data come from US20120058906A1 (published 2012).
